The values below come from patent US20210169936A1 (AFFIMED, published 2021).

Where a chain is given by its changes, count along the chain named.

The target in test [1] is human CD16B(NA1) ECD, mature form (without propeptide), fused to monomeric Fc (human) (UniProt O75015). Kind of test: ELISA, coated antigen-mFc.
Test [2] has as its target human CD16A(48R, 158V) ECD fused to monomeric mFc.67 (human) (UniProt P08637). Kind of test: ELISA, coated antigen-mFc. (An ELISA detects its analyte on a solid surface through an enzyme-linked reagent.)
Test [3] has as its target T1, CD16A on primary human NK cells (human, UniProt P08637).
T1 construct: full length, on the cell surface; also called FcgRIIIA on enriched human NK cells
In words: flow cytometry on primary human NK cells at 37 °C, without IgG; anti-His mAb and FITC goat anti-mouse IgG. For orientation: A flow cytometer gives signals particle by particle.

Test [4] deals with T1, CD16A on primary human NK cells. In words: flow cytometry on primary human NK cells at 37 °C, with 10 mg/mL polyclonal human IgG; anti-His mAb and FITC goat anti-mouse IgG.
Test [5] has as its target Human CD16A^(48R, 158V) fused to IgG Fc (human) (UniProt P08637). Kind of test: ELISA, coated antigen-IgG Fc.
Test [6] addresses Cynomolgus CD16A fused to IgG Fc (cynomolgus; human) (UniProt Q8SPW2). In words: ELISA, coated antigen-IgG Fc.
For test [7], the target named is Human CD16A^(48R, 158F) fused to IgG Fc (human) (UniProt P08637). In words: ELISA, coated antigen-IgG Fc.
The target in test [8] is T2, propeptide-containing ECD of CD16B(NA1) expressed on the CHO cell surface (human, UniProt O75015 17-208).
T2 construct: extracellular domain; not shown: membrane anchor: transmembrane domain of human EGFR or GPI anchor
In words: flow cytometry, MFI in cell binding to recombinant CHO cells; antigen EGFRTM anchored.

In test [9] the target is T3, mature ECD of CD16B(NA1) expressed on the CHO cell surface (human, UniProt O75015 17-200).
T3 construct: mature; not shown: membrane anchor: transmembrane domain of human EGFR or GPI anchor
The description is as above.

For test [10], the target named is T4, huCD16A (48R,158V), EGFRTM anchored (human, UniProt P08637;P00533).
T4 construct: extracellular domain;transmembrane domain; Expressed on recombinant CHO cells; one member of the group m39
The test is described as above.

Test [11] deals with human CD16B ECD mutant H140Y fused to monomeric mFc.67 (human) (UniProt O75015). Kind of test: ELISA, coated antigen-mFc.
Test [12] concerns the target Human CD16B^H140Y fused to IgG Fc (human) (UniProt O75015). In words: ELISA, coated antigen-IgG Fc.
For test [13], the target named is T2, propeptide-containing ECD of CD16B(NA1) …. Kind of test: binding to recombinant CHO cells.
Test [14] addresses T3, mature ECD of CD16B(NA1) expressed on …. Kind of test: binding to recombinant CHO cells.
In test [15] the target is T1, CD16A on primary human NK cells. Kind of test: flow cytometry on primary human NK cells at 37 °C, without IgG; anti-His mAb and FITC goat anti-mouse IgG. This is another data set of the same source.
Protocol: (§1) After the last staining step, the cells were washed again and resuspended in 0.2 mL of FACS buffer containing 2 μg/mL propidium iodide (PI) (Sigma, cat.: P4170) in order to exclude dead cells. […] For the calculation of KD, the equation for one-site-binding (hyperbola) was used.
In test [16] the target is T5, recombinant EGFR expressed on CHO cells (specificity control) (UniProt P00533 25-1210, limits assumed).
T5 construct: whole, on cells; also called control EGFR antigen
In words: flow cytometry, MFI in cell binding to recombinant CHO cells; antigen EGFRTM anchored.

The target of test [17] is T1, CD16A on primary human NK cells. In words: flow cytometry on primary human NK cells at 37 °C, without IgG; anti-His mAb and FITC goat anti-mouse IgG. This is another data set of the same source.
Protocol: as §1
Test [18] addresses Human CD16B(NA1)^pr fused to IgG Fc (human) (UniProt O75015). Kind of test: ELISA, coated antigen-IgG Fc.
Test [19] has as its target human CD16A(48R, 158V) ECD fused to monomeric mFc.67 (human) (UniProt P08637). Kind of test: ELISA, coated antigen-mFc, Protein L-HRP.
Test [20] deals with human CD16B ECD mutant H140Y fused to monomeric mFc.67 (human) (UniProt O75015). In words: ELISA, coated antigen-mFc, Protein L-HRP.

Sequence of Human CD16A^(48R, 158F) fused to IgG Fc (human) (P08637 17-208 L66R): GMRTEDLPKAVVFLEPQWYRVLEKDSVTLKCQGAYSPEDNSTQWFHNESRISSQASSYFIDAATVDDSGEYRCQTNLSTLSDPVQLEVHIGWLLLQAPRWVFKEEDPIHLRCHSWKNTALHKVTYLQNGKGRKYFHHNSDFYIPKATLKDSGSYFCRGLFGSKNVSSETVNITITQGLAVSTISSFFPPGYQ
T1 sequence (P08637 17-254 limits assumed): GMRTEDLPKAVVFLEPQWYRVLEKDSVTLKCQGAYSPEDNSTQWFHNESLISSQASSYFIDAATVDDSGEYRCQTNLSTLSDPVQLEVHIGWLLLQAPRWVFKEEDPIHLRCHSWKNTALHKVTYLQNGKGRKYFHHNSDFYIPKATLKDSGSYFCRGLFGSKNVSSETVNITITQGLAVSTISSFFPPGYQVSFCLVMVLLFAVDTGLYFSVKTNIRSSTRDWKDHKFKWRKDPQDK
Sequence of Human CD16A^(48R, 158V) fused to IgG Fc (human) (P08637 17-208 L66R/F176V): as the sequence (P08637 17-208 L66R) above, with F160V counted along it
Sequence of human CD16A(48R, 158V) ECD fused to monomeric mFc.67 (human) (P08637 17-208 L66R/F176V): as the sequence (P08637 17-208 L66R) above, with F160V counted along it
T3 sequence (O75015 other isoform, or with tags, fused parts or gaps): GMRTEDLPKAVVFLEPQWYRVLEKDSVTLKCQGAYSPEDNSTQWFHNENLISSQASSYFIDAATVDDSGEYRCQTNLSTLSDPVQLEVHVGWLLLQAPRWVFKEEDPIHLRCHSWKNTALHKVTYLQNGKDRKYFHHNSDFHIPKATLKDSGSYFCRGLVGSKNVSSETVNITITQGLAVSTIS
Sequence of human CD16B ECD mutant H140Y fused to monomeric mFc.67 (human) (O75015 other isoform, or with tags, fused parts or gaps H140Y H140Y): as the sequence (P08637 17-208 L66R) above, with S49N, R50L, I90V, G131D, F160V, F187S counted along it
Sequence of Human CD16B^H140Y fused to IgG Fc (human) (O75015 other isoform, or with tags, fused parts or gaps H140Y H140Y limits assumed): as the sequence (P08637 17-208 L66R) above, with S49N, R50L, I90V, G131D, F160V, F187S counted along it
T2 sequence (O75015 other isoform, or with tags, fused parts or gaps): as the sequence (P08637 17-208 L66R) above, with S49N, R50L, I90V, G131D, Y142H, F160V, F187S counted along it
Sequence of Cynomolgus CD16A fused to IgG Fc (cynomolgus; human) (Q8SPW2 17-208): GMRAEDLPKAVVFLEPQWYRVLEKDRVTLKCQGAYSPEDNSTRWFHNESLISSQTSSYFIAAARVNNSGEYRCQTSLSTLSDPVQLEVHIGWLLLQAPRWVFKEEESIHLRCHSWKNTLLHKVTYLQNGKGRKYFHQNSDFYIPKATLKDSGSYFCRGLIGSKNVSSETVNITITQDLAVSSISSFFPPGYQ
T4 sequence (P08637 other isoform, or with tags, fused parts or gaps limits assumed): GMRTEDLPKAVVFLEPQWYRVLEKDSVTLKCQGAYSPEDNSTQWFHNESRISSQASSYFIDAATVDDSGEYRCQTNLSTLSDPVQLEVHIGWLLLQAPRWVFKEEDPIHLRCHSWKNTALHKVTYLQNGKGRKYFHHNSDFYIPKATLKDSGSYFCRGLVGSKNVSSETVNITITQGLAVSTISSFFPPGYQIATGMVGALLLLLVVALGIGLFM
Sequence of Human CD16B(NA1)^pr fused to IgG Fc (human) (O75015 other isoform, or with tags, fused parts or gaps limits assumed): as the sequence (P08637 17-208 L66R) above, with S49N, R50L, I90V, G131D, Y142H, F160V, F187S counted along it

Regarding “scFv antibody comprising the variable heavy and light chain sequences of antibody 3G8”, the EC50 (usually the concentration that produces a half-maximal response) in test [1] stood at 0.9 nM; in test [2], 1 nM; in [5], 1.2 nM; in test [6] it was 7.5 nM; in test [7], 7.6 nM. Also, the EC50 (read off the curve) (as a rule, the concentration at which the effect is half-maximal) in test [3] was determined as 3 nM; in test [4] it was 20 nM.

B1: EGFR-1 scFv (scFv)
scFv: QVQLQESGPGLVKPSETLSLTCTVSGGSVSSGSYYWSWIRQPPGKGLEWIGYIYYSGSTNYNPSLKSRVTISVDTSKNQFSLKLSSVTAADTAVYYCARNPISIPAFDIWGQGTMVTVSSGGSGGSGGSGGSGGSGGSQPVLTQPPSVSVAPGKTARITCGGNNIGSKSVHWYQQKPGQAPVLVIYYDSDRPSGIPERFSGSNSGNTATLTISRVEAGDEADYYCQVWDTSSDHVLFGGGTKLTVLAAAGSHHHHHH
notes: also called scFv EGFR (EGFR-1); control scFv
For B1, the binding result in test [8], in [9] and in [10] was “no binding” throughout.

B2: EGFR-1/CD16-1 TandAb (CD16-1) (bispecific antibody)
chain: QVQLQESGPGLVKPSETLSLTCTVSGGSVSSGSYYWSWIRQPPGKGLEWIGYIYYSGSTNYNPSLKSRVTISVDTSKNQFSLKLSSVTAADTAVYYCARNPISIPAFDIWGQGTMVTVSSGGSGGSGGSSYVLTQPSSVSVAPGQTATISCGGHNIGSKNVHWYQQRPGQSPVLVIYQDNKRPSGIPERFSGSNSGNTATLTISGTQAMDEADYYCQVWDNYSVLFGGGTKLTVLGGSGGSQVQLVQSGAEVKKPGESLKVSCKASGYTFTSYYMHWVRQAPGQGLEWMGIINPSGGSTSYAQKFQGRVTMTRDTSTSTVYMELSSLRSEDTAVYYCARGSAYYYDFADYWGQGTLVTVSSGGSGGSGGSQPVLTQPPSVSVAPGKTARITCGGNNIGSKSVHWYQQKPGQAPVLVIYYDSDRPSGIPERFSGSNSGNTATLTISRVEAGDEADYYCQVWDTSSDHVLFGGGTKLTVLAAAGSHHHHHH
With B2, the EC50 amounted to 0.6 nM in test [2] and 0.5 nM in test [11].

B3: scFv CD16A (CD16-3) (scFv)
scFv: QVQLVQSGAEVKKPGESLKVSCKASGYTFTNYYMQWVRQAPGQGLEWMGVINPGGGSTSYAQKFQGRVTMTRDTSTSTVYMELSSLRSEDTAVYYCARGSAYYYDFADYWGQGTLVTVSSGGSGGSGGSGGSGGSGGSSYVLTQPSSVSVAPGQTARITCGGHNIGSQSVHWYQQKPGQAPVLVIYQDSKRPSGIPERFSGSNSGNTATLTISGTQAMDEADYYCQVWDNYSVVFGGGTKLTVLAAAGSHHHHHH
Take B3: the EC50 in test [5] is 1.2 nM; in [12], 1.3 nM; in [6], 1.4 nM; in test [7], 1.2 nM.

B4: scFv CD16A (CD16-4) (scFv)
scFv: QVQLVQSGAEVKKPGESLKVSCKASGYSFSDFYIQWVRQAPGQGLEWMGIINPGGASTTYAQKFQGRVTMTRDTSTSTVYMELSSLRSEDTAVYYCARGSAYYYDFADYWGQGTLVTVSSGGSGGSGGSGGSGGSGGSSYVLTQPSSVSVAPGQTARITCGGYNIGRQSVHWYQQKPGQAPVLVIYQDSKRPSGIPERFSGSNSGNTATLTISGTQAMDEADYYCQVWDNYTVVFGGGTKLTVLAAAGSHHHHHH
Consider B4, for which the EC50 in test [5] stood at 2.2 nM; in [12], 1.7 nM; in test [6], 1.4 nM; in test [7], 2.5 nM.

B5: scFv CD16A (CD16-7) (scFv)
scFv: QVQLVQSGAEVKKPGESLKVSCKASGYTFTNYYMHWVRQAPGQGLEWMGVIEPDGGRRTYAQKFQGRVTMTRDTSTSTVYMELSSLRSEDTAVYYCARGSAYYYDFADYWGQGTLVTVSSGGSGGSGGSGGSGGSGGSEIVLTQSPATLSLSPGERATLSCRGHQGVSGDVHWYQQKPGQAPRLLIYQANKRASGIPARFSGSGSGTEFTLTISSLEPEDFAVYYCQQWDNYSVTFGQGTKVEIKAAAGSHHHHHH
Regarding B5, the EC50 in test [5] amounted to 1.8 nM; in test [12] it was 1.7 nM; in test [6] it was 1.6 nM; in test [7], 2.4 nM.

B6: scFv CD16A (CD16-1) (scFv)
scFv: QVQLVQSGAEVKKPGESLKVSCKASGYTFTSYYMHWVRQAPGQGLEWMGIINPSGGSTSYAQKFQGRVTMTRDTSTSTVYMELSSLRSEDTAVYYCARGSAYYYDFADYWGQGTLVTVSSGGSGGSGGSGGSGGSGGSSYVLTQPSSVSVAPGQTATISCGGHNIGSKNVHWYQQRPGQSPVLVIYQDNKRPSGIPERFSGSNSGNTATLTISGTQAMDEADYYCQVWDNYSVLFGGGTKLTVLAAAGSHHHHHH
notes: also called LSIV21 scFv
As for B6, the binding result in test [13], in test [14] and in [16] was “no binding” in each case. Also, the “EC50 (read off the curve)” value in [15] is approximately 40 nM. Besides, the concentration giving a half-maximal response (EC50) in test [5] was found to be 14.4 nM; in test [12], 9.5 nM; in test [6], 16.2 nM; in [7], 25.7 nM.

B7: scFv CD16A (CD16-2) (scFv)
scFv: B6 scFv with I50A, N52E, S54M, G55Y
notes: also called CD16-2 scFv
For the molecule B7, the figures for the “EC50 (read off the curve)” value in test [17] and in [4] were approximately 10 nM and approximately 30 nM, respectively. The binding result in test [13], in [14] and in [16] was “no binding” throughout. The half-maximal effective concentration (EC50) in test [2] is 1.6 nM; in test [11] it was 1.3 nM; in test [5], 1.5 nM; in test [12] it was 1.2 nM; in test [6], 2.5 nM; in test [7] it was 2.8 nM.

B8: scFv CD16A (CD16-5) (scFv)
scFv: QVQLVQSGAEVKKPGESLKVSCKASGYTFSSYYMHWVRQAPGQGLEWMGAIEPRGVRISYAQKFQGRVTMTRDTSTSTVYMELSSLRSEDTAVYYCARGSAYYYDFADYWGQGTLVTVSSGGSGGSGGSGGSGGSGGSSYVLTQPSSVSVAPGQTARITCGGHNIGSTNVHWYQQKPGQAPVLVIYQDSKRPSGIPERFSGSNSGNTATLTISGTQAMDEADYYCQVWDNYSVQFGGGTKLTVLAAAGSHHHHHH
For the molecule B8, the EC50 was 1.2 nM in [5]; 1.1 nM in test [12]; 1.4 nM in test [6]; 24.9 nM in [18]; 0.8 nM in test [7].

B9: BCMA-1/CD16-2 TandAb (CD16-2) (bispecific antibody)
chain: EVQLLESGGGLVQPGGSLRLSCAASGFTFSNYDMAWVRQAPGKGLEWVSSISTRGDITSYRDSVKGRFTISRDNSKNTLYLQMNSLRAEDTAVYYCARQDYYTDYMGFAYWGQGTLVTVSSGGSGGSGGSGGSSYVLTQPSSVSVAPGQTATISCGGHNIGSKNVHWYQQRPGQSPVLVIYQDNKRPSGIPERFSGSNSGNTATLTISGTQAMDEADYYCQVWDNYSVLFGGGTKLTVLGGSQVQLVQSGAEVKKPGESLKVSCKASGYTFTSYYMHWVRQAPGQGLEWMGAIEPMYGSTSYAQKFQGRVTMTRDTSTSTVYMELSSLRSEDTAVYYCARGSAYYYDFADYWGQGTLVTVSSGGSGGSGGSGGSAIQMTQSPSSLSASVGDRVTITCRASEDIYNGLAWYQQKPGKAPKLLIYGASSLQDGVPSRFSGSGSGTEFTLTISSLQPEDEATYYCAGPHKYPLTFGGGTKVEIK
In the case of B9, the EC50 in [19] was 1.1 nM; in test [20] it was 1.2 nM.
